Laboratory results published in patent US20150352233A1.

Molecular target: Membrane Preparation Recombinant Human GLP-1 (GLP-1R) (human) (UniProt P43220)

non-labeled exendin4 (peptide; other documents disagree on this pair)
IC50: 0.19 nM
